Reference: publication PMC12913813

Biological target: Smog::GFP (Drosophila)
Assay: fluorescence correlation spectroscopy

## Smog::GFP (receptor)
  estimated fraction of dimers (monomer/dimer model), WT embryos: 68%
  estimated fraction of dimers (monomer/dimer model), control embryos: 79%
  estimated fraction of dimers (monomer/dimer model), gprk2 RNAi embryos: 100%
  estimated fraction of trimers (monomer/trimer model), control embryos: 21%
  estimated fraction of trimers (monomer/trimer model), gprk2 RNAi embryos: 76%
